The data set concerns the target human plasmin (UniProt P00747).

We go through 2 substances from US20180362596.

Chain of human plasmin (P00747 97-810): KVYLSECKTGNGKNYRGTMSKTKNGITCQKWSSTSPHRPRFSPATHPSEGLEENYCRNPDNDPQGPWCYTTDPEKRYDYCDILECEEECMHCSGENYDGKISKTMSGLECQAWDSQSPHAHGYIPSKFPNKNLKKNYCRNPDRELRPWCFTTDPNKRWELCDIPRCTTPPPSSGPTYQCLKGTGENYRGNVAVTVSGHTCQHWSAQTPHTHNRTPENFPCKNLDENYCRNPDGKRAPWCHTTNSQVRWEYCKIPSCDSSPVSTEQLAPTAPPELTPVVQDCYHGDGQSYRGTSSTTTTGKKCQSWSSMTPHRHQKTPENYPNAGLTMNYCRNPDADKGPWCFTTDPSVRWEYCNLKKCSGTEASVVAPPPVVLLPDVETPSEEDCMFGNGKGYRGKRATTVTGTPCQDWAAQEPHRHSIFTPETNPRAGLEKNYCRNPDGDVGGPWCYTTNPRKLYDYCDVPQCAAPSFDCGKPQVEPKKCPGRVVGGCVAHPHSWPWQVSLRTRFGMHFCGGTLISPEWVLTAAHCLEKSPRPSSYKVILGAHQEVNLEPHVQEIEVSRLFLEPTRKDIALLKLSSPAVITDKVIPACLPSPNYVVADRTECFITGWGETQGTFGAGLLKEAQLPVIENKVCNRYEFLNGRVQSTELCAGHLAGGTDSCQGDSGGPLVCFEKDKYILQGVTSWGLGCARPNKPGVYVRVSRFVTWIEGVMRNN

In the case of “clot specific streptokinase (CSSK), FBD(4,5)-SK-FBD(4,5), expressed in E. coli”, the “lag in plasminogen activation activity with added plasmin” value is reported as “there was a progressive decrease in the lag in activity in the presence of increasing amounts of plasmin added to the reaction”.
Turning to “clot specific streptokinase (CSSK), FBD(4,5)-SK-FBD(4,5), expressed in Pichia pastoris (pPIC9K-alpha modified CSSK/GS115), glycosylated”, the “lag in plasminogen activation activity with added plasmin” value is reported as “there was a progressive decrease in the lag in activity in the presence of increasing amounts of plasmin added to the reaction”.
